B1: TLE6 (parent)
chain: FWHDTLTEQLWRIFAGVHDEKAKP

Variants of: B1
Experiment: protein stability index of a GFP-peptide fusion (GPS, HEK-293T) (PSI 1-6); higher = more stable
Details: c terminus: a fixed tail appended
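Note: lentivirally expressed fusions sorted by FACS into six bins by GFP to DsRed ratio, PSI derived from sequencing read proportions per bin multiplied by bin number.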

Variant | protein stability index
FWHDTLTEQLWRIFDGVHDEKAKP [A15D] | 1.86
FWHDTLTEQLWRIFRGVHDEKAKP [A15R] | 1.94
FWHDTLTEQLWRIFCGVHDEKAKP [A15C] | 2.23
FWHDTLTEQLWRIFYGVHDEKAKP [A15Y] | 1.62
FWHDTLTEQLWRIFVGVHDEKAKP [A15V] | 2.82
FWHDTLTEQLWRIFTGVHDEKAKP [A15T] | 1.89
FWHDTLTEQLWRIFFGVHDEKAKP [A15F] | 1.73
FWHDTLTEQLWRIFIGVHDEKAKP [A15I] | 1.79
FWHDTLTEQLWRIFHGVHDEKAKP [A15H] | 1.86
FWHDTLTEQLWRIFQGVHDEKAKP [A15Q] | 1.61
FWHDTLTEQLWRIFGGVHDEKAKP [A15G] | 2.02
FWHDTLTEQLWRIFPGVHDEKAKP [A15P] | 2.23
FWHDTLTEQLWRIFLGVHDEKAKP [A15L] | 2.41
FWHDTLTEQLWRIFMGVHDEKAKP [A15M] | 1.39
FWHDTLTEQLWRIFKGVHDEKAKP [A15K] | 1.81
FWHDTLTEQLWRIFEGVHDEKAKP [A15E] | 1.77
FWHDTLTEQLWRIFNGVHDEKAKP [A15N] | 1.68
FWHDTLTEQLWRIFSGVHDEKAKP [A15S] | 2.43
FWHDTLTEQLWRIFAHVHDEKAKP [G16H] | 2.26
FWHDTLTEQLWRIFADVHDEKAKP [G16D] | 2.06
FWHDTLTEQLWRIFAMVHDEKAKP [G16M] | 2.14
FWHDTLTEQLWRIFATVHDEKAKP [G16T] | 1.62
FWHDTLTEQLWRIFASVHDEKAKP [G16S] | 1.82
FWHDTLTEQLWRIFAEVHDEKAKP [G16E] | 1.9

Variant | protein stability index
FWHDTLTEQLWRIFANVHDEKAKP [G16N] | 2.07
FWHDTLTEQLWRIFAQVHDEKAKP [G16Q] | 1.89
FWHDTLTEQLWRIFAIVHDEKAKP [G16I] | 1.89
FWHDTLTEQLWRIFAAVHDEKAKP [G16A] | 1.88
FWHDTLTEQLWRIFAVVHDEKAKP [G16V] | 2.85
FWHDTLTEQLWRIFAPVHDEKAKP [G16P] | 3.4
FWHDTLTEQLWRIFAWVHDEKAKP [G16W] | 2.23
FWHDTLTEQLWRIFARVHDEKAKP [G16R] | 1.6
FWHDTLTEQLWRIFACVHDEKAKP [G16C] | 1.83
FWHDTLTEQLWRIFAKVHDEKAKP [G16K] | 2.12
FWHDTLTEQLWRIFAFVHDEKAKP [G16F] | 1.72
FWHDTLTEQLWRIFALVHDEKAKP [G16L] | 1.64
FWHDTLTEQLWRIFAYVHDEKAKP [G16Y] | 2.51
FWHDTLTEQLWEIFAGVHDEKAKP [R12E] | 1.63
FWHDTLTEQLWVIFAGVHDEKAKP [R12V] | 1.71
FWHDTLTEQLWGIFAGVHDEKAKP [R12G] | 2.23
FWHDTLTEQLWSIFAGVHDEKAKP [R12S] | 2.06
FWHDTLTEQLWDIFAGVHDEKAKP [R12D] | 1.94
FWHDTLTEQLWIIFAGVHDEKAKP [R12I] | 2.73
FWHDTLTEQLWMIFAGVHDEKAKP [R12M] | 1.52
FWHDTLTEQLWHIFAGVHDEKAKP [R12H] | 2.11
FWHDTLTEQLWQIFAGVHDEKAKP [R12Q] | 1.94
FWHDTLTEQLWPIFAGVHDEKAKP [R12P] | 2.43
FWHDTLTEQLWKIFAGVHDEKAKP [R12K] | 2.17

Variant | protein stability index
FWHDTLTEQLWWIFAGVHDEKAKP [R12W] | 2.47
FWHDTLTEQLWLIFAGVHDEKAKP [R12L] | 1.91
FWHDTLTEQLWTIFAGVHDEKAKP [R12T] | 2.02
FWHDTLTEQLWNIFAGVHDEKAKP [R12N] | 2.2
FWHDTLTEQLWCIFAGVHDEKAKP [R12C] | 2.88
FWHDTLTEQLWAIFAGVHDEKAKP [R12A] | 1.91
FWHDTLTEQLWFIFAGVHDEKAKP [R12F] | 2.21
FWHDTLTEQLWYIFAGVHDEKAKP [R12Y] | 1.69
FWHDTLTEQLWRIFAGVWDEKAKP [H18W] | 1.36
FWHDTLTEQLWRIFAGVMDEKAKP [H18M] | 2.48
FWHDTLTEQLWRIFAGVDDEKAKP [H18D] | 2.1
FWHDTLTEQLWRIFAGVYDEKAKP [H18Y] | 2.35
FWHDTLTEQLWRIFAGVSDEKAKP [H18S] | 2.72
FWHDTLTEQLWRIFAGVADEKAKP [H18A] | 2.38
FWHDTLTEQLWRIFAGVFDEKAKP [H18F] | 1.92
FWHDTLTEQLWRIFAGVKDEKAKP [H18K] | 1.53
FWHDTLTEQLWRIFAGVGDEKAKP [H18G] | 1.79
FWHDTLTEQLWRIFAGVVDEKAKP [H18V] | 1.61
FWHDTLTEQLWRIFAGVRDEKAKP [H18R] | 1.84
FWHDTLTEQLWRIFAGVLDEKAKP [H18L] | 2.67
FWHDTLTEQLWRIFAGVNDEKAKP [H18N] | 2.09
FWHDTLTEQLWRIFAGVIDEKAKP [H18I] | 2.92
FWHDTLTEQLWRIFAGVPDEKAKP [H18P] | 1.48
FWHDTLTEQLWRIFAGVQDEKAKP [H18Q] | 1.5

Variant | protein stability index
FWHDTLTEQLWRIFAGVCDEKAKP [H18C] | 2.24
FWHDTLTEQLWRIFAGVEDEKAKP [H18E] | 2.07
FWHDTLTEQLWRIFAGVTDEKAKP [H18T] | 2.13
FWHDTLTEQLWRIMAGVHDEKAKP [F14M] | 2.19
FWHDTLTEQLWRIDAGVHDEKAKP [F14D] | 1.61
FWHDTLTEQLWRIVAGVHDEKAKP [F14V] | 2.35
FWHDTLTEQLWRIQAGVHDEKAKP [F14Q] | 1.52
FWHDTLTEQLWRIEAGVHDEKAKP [F14E] | 2.19
FWHDTLTEQLWRIIAGVHDEKAKP [F14I] | 2.56
FWHDTLTEQLWRIKAGVHDEKAKP [F14K] | 2.61
FWHDTLTEQLWRIPAGVHDEKAKP [F14P] | 1.98
FWHDTLTEQLWRIYAGVHDEKAKP [F14Y] | 2.13
FWHDTLTEQLWRIGAGVHDEKAKP [F14G] | 2.21
FWHDTLTEQLWRIRAGVHDEKAKP [F14R] | 2.4
FWHDTLTEQLWRIAAGVHDEKAKP [F14A] | 1.65
FWHDTLTEQLWRICAGVHDEKAKP [F14C] | 2.62
FWHDTLTEQLWRIWAGVHDEKAKP [F14W] | 1.89
FWHDTLTEQLWRISAGVHDEKAKP [F14S] | 1.75
FWHDTLTEQLWRINAGVHDEKAKP [F14N] | 1.45
FWHDTLTEQLWRILAGVHDEKAKP [F14L] | 1.8
FWHDTLTEQLWRITAGVHDEKAKP [F14T] | 2.39
FWHDTLTEQLWRIHAGVHDEKAKP [F14H] | 1.65

— the supplement of paper PMC10567573
